Assay results taken from patent US20140011734A1 (Sanofi, published 2014).
Starred links: 1 amine or outer side, 2 acyl side, 3 side chain; linkers in the order of their positions; H or OH if unused. Non-standard residues stand in square brackets, D forms with d. NH(CH2)9CO = O=C(CCCCCCCCCN[*:1])[*:2]; tBuAla = CC(C)(C)C[C@H](N)C(=O)O; Cha = N[C@@H](CC1CCCCC1)C(=O)O; Chg = N[C@H](C(=O)O)C1CCCCC1; Ac6c = NC1(C(=O)O)CCCCC1; Orn = NCCC[C@H](N)C(=O)O; Dab = NCC[C@H](N)C(=O)O; Nva = CCC[C@H](N)C(=O)O; Dap = NC[C@H](N)C(=O)O; Ac3c = NC1(C(=O)O)CC1; Aib = CC(C)(N)C(=O)O; Ahp = NCCCCCCC(=O)O; Ava = NCCCCC(=O)O; GABA = NCCCC(=O)O

B1: Cyclo[Ac6-His-Asn-Leu-NH-(CH2)6-CO-Thr-Glu-Arg-Met-Ala] (peptide)
peptide: cyclo([Ac6c]HNL[Ahp]TERMA)
B2: Cyclo[Leu-His-Asn-Leu-NH-(CH2)6-CO-Thr-Glu-Arg-Chg-Ala] (peptide)
peptide: cyclo(LHNL[Ahp]TER[Chg]A)
SMILES: CC(C)C[C@@H]1NC(=O)[C@H](C)NC(=O)[C@H](C2CCCCC2)NC(=O)[C@H](CCCNC(=N)N)NC(=O)[C@H](CCC(=O)O)NC(=O)[C@H]([C@@H](C)O)NC(=O)CCCCCCNC(=O)[C@H](CC(C)C)NC(=O)[C@H](CC(N)=O)NC(=O)[C@H](Cc2c[nH]cn2)NC1=O
B3: Cyclo[Leu-His-Asn-Leu-Gly-NH-(CH2)4-CO-Thr-Glu-Arg-Met-Ala] (peptide)
peptide: cyclo(LHNLG[Ava]TERMA)
SMILES: CSCC[C@@H]1NC(=O)[C@H](CCCNC(=N)N)NC(=O)[C@H](CCC(=O)O)NC(=O)[C@H]([C@@H](C)O)NC(=O)CCCCNC(=O)CNC(=O)[C@H](CC(C)C)NC(=O)[C@H](CC(N)=O)NC(=O)[C@H](Cc2c[nH]cn2)NC(=O)[C@H](CC(C)C)NC(=O)[C@H](C)NC1=O
B4: Cyclo[Leu-His-Asn-Leu-NH-(CH2)9-CO-Thr-Glu-Arg-Met-Ala] (peptide)
peptide: cyclo(LHNL[NH(CH2)9CO]TERMA)
SMILES: CSCC[C@@H]1NC(=O)[C@H](CCCNC(=N)N)NC(=O)[C@H](CCC(=O)O)NC(=O)[C@H]([C@@H](C)O)NC(=O)CCCCCCCCCNC(=O)[C@H](CC(C)C)NC(=O)[C@H](CC(N)=O)NC(=O)[C@H](Cc2c[nH]cn2)NC(=O)[C@H](CC(C)C)NC(=O)[C@H](C)NC1=O
B5: Cyclo[Leu-His-Asn-Leu-Dpr-NH-(CH2)3-CO-Thr-Glu-Arg-Met-Ala] (peptide)
peptide: cyclo(LHNL[Dap][GABA]TERMA)
SMILES: CSCC[C@@H]1NC(=O)[C@H](CCCNC(=N)N)NC(=O)[C@H](CCC(=O)O)NC(=O)[C@H]([C@@H](C)O)NC(=O)CCCNC(=O)[C@H](CN)NC(=O)[C@H](CC(C)C)NC(=O)[C@H](CC(N)=O)NC(=O)[C@H](Cc2c[nH]cn2)NC(=O)[C@H](CC(C)C)NC(=O)[C@H](C)NC1=O
B6: Cyclo[Leu-His-Asn-Leu-NH-(CH2)3-CO-Aib-Thr-Glu-Arg-Met-Ala] (peptide)
peptide: cyclo(LHNL[GABA][Aib]TERMA)
SMILES: CSCC[C@@H]1NC(=O)[C@H](CCCNC(=N)N)NC(=O)[C@H](CCC(=O)O)NC(=O)[C@H]([C@@H](C)O)NC(=O)C(C)(C)NC(=O)CCCNC(=O)[C@H](CC(C)C)NC(=O)[C@H](CC(N)=O)NC(=O)[C@H](Cc2c[nH]cn2)NC(=O)[C@H](CC(C)C)NC(=O)[C@H](C)NC1=O
B7: Cyclo[Leu-His-Asn-Leu-NH-(CH2)3-CO-Ac3-Thr-Glu-Arg-Met-Ala] (peptide)
peptide: cyclo(LHNL[GABA][Ac3c]TERMA)
SMILES: CSCC[C@@H]1NC(=O)[C@H](CCCNC(=N)N)NC(=O)[C@H](CCC(=O)O)NC(=O)[C@H]([C@@H](C)O)NC(=O)C2(CC2)NC(=O)CCCNC(=O)[C@H](CC(C)C)NC(=O)[C@H](CC(N)=O)NC(=O)[C@H](Cc2c[nH]cn2)NC(=O)[C@H](CC(C)C)NC(=O)[C@H](C)NC1=O
B8: Cyclo[Leu-His-Asn-Leu-NH-(CH2)6-CO-Asn-Glu-Arg-Met-Ala] (peptide)
peptide: cyclo(LHNL[Ahp]NERMA)
SMILES: CSCC[C@@H]1NC(=O)[C@H](CCCNC(=N)N)NC(=O)[C@H](CCC(=O)O)NC(=O)[C@H](CC(N)=O)NC(=O)CCCCCCNC(=O)[C@H](CC(C)C)NC(=O)[C@H](CC(N)=O)NC(=O)[C@H](Cc2c[nH]cn2)NC(=O)[C@H](CC(C)C)NC(=O)[C@H](C)NC1=O
B9: Cyclo[Leu-His-Asn-Leu-NH-(CH2)6-CO-Gln-Glu-Arg-Met-Ala] (peptide)
peptide: cyclo(LHNL[Ahp]QERMA)
SMILES: CSCC[C@@H]1NC(=O)[C@H](CCCNC(=N)N)NC(=O)[C@H](CCC(=O)O)NC(=O)[C@H](CCC(N)=O)NC(=O)CCCCCCNC(=O)[C@H](CC(C)C)NC(=O)[C@H](CC(N)=O)NC(=O)[C@H](Cc2c[nH]cn2)NC(=O)[C@H](CC(C)C)NC(=O)[C@H](C)NC1=O
B10: Cyclo[Leu-His-Asn-Leu-NH-(CH2)6-CO-Thr-Glu-Arg-Ala-Ala] (peptide)
peptide: cyclo(LHNL[Ahp]TERAA)
SMILES: CC(C)C[C@@H]1NC(=O)[C@H](C)NC(=O)[C@H](C)NC(=O)[C@H](CCCNC(=N)N)NC(=O)[C@H](CCC(=O)O)NC(=O)[C@H]([C@@H](C)O)NC(=O)CCCCCCNC(=O)[C@H](CC(C)C)NC(=O)[C@H](CC(N)=O)NC(=O)[C@H](Cc2c[nH]cn2)NC1=O
B11: Cyclo[Leu-His-Asn-Leu-NH-(CH2)6-CO-Thr-Glu-Arg-Gln-Ala] (peptide)
peptide: cyclo(LHNL[Ahp]TERQA)
SMILES: CC(C)C[C@@H]1NC(=O)[C@H](C)NC(=O)[C@H](CCC(N)=O)NC(=O)[C@H](CCCNC(=N)N)NC(=O)[C@H](CCC(=O)O)NC(=O)[C@H]([C@@H](C)O)NC(=O)CCCCCCNC(=O)[C@H](CC(C)C)NC(=O)[C@H](CC(N)=O)NC(=O)[C@H](Cc2c[nH]cn2)NC1=O
B12: Cyclo[Leu-His-Asn-Leu-NH-(CH2)6-CO-Thr-Glu-Arg-Leu-Ala] (peptide)
peptide: cyclo(LHNL[Ahp]TERLA)
SMILES: CC(C)C[C@@H]1NC(=O)[C@H](C)NC(=O)[C@H](CC(C)C)NC(=O)[C@H](CCCNC(=N)N)NC(=O)[C@H](CCC(=O)O)NC(=O)[C@H]([C@@H](C)O)NC(=O)CCCCCCNC(=O)[C@H](CC(C)C)NC(=O)[C@H](CC(N)=O)NC(=O)[C@H](Cc2c[nH]cn2)NC1=O
B13: Cyclo[Cha-His-Asn-Leu-NH-(CH2)6-CO-Thr-Glu-Arg-Met-Ala] (peptide)
peptide: cyclo([Cha]HNL[Ahp]TERMA)
SMILES: CSCC[C@@H]1NC(=O)[C@H](CCCNC(=N)N)NC(=O)[C@H](CCC(=O)O)NC(=O)[C@H]([C@@H](C)O)NC(=O)CCCCCCNC(=O)[C@H](CC(C)C)NC(=O)[C@H](CC(N)=O)NC(=O)[C@H](Cc2c[nH]cn2)NC(=O)[C@H](CC2CCCCC2)NC(=O)[C@H](C)NC1=O
B14: Cyclo[Leu-His-Asn-Leu-NH-(CH2)6-CO-Thr-Glu-Arg-Cha-Ala] (peptide)
peptide: cyclo(LHNL[Ahp]TER[Cha]A)
SMILES: CC(C)C[C@@H]1NC(=O)[C@H](C)NC(=O)[C@H](CC2CCCCC2)NC(=O)[C@H](CCCNC(=N)N)NC(=O)[C@H](CCC(=O)O)NC(=O)[C@H]([C@@H](C)O)NC(=O)CCCCCCNC(=O)[C@H](CC(C)C)NC(=O)[C@H](CC(N)=O)NC(=O)[C@H](Cc2c[nH]cn2)NC1=O
B15: Cyclo[Nva-His-Asn-Leu-NH-(CH2)6-CO-Thr-Glu-Arg-Met-Ala] (peptide)
peptide: cyclo([Nva]HNL[Ahp]TERMA)
SMILES: CCC[C@@H]1NC(=O)[C@H](C)NC(=O)[C@H](CCSC)NC(=O)[C@H](CCCNC(=N)N)NC(=O)[C@H](CCC(=O)O)NC(=O)[C@H]([C@@H](C)O)NC(=O)CCCCCCNC(=O)[C@H](CC(C)C)NC(=O)[C@H](CC(N)=O)NC(=O)[C@H](Cc2c[nH]cn2)NC1=O
B16: Cyclo[Leu-His-Asn-Leu-NH-(CH2)6-CO-Dbu-Glu-Arg-Met-Ala] (peptide)
peptide: cyclo(LHNL[Ahp][Dab]ERMA)
SMILES: CSCC[C@@H]1NC(=O)[C@H](CCCNC(=N)N)NC(=O)[C@H](CCC(=O)O)NC(=O)[C@H](CCN)NC(=O)CCCCCCNC(=O)[C@H](CC(C)C)NC(=O)[C@H](CC(N)=O)NC(=O)[C@H](Cc2c[nH]cn2)NC(=O)[C@H](CC(C)C)NC(=O)[C@H](C)NC1=O
B17: Cyclo[Leu-His-Asn-Leu-NH-(CH2)6-CO-Thr-Glu-Orn-Met-Ala] (peptide)
peptide: cyclo(LHNL[Ahp]TE[Orn]MA)
SMILES: CSCC[C@@H]1NC(=O)[C@H](CCCN)NC(=O)[C@H](CCC(=O)O)NC(=O)[C@H]([C@@H](C)O)NC(=O)CCCCCCNC(=O)[C@H](CC(C)C)NC(=O)[C@H](CC(N)=O)NC(=O)[C@H](Cc2c[nH]cn2)NC(=O)[C@H](CC(C)C)NC(=O)[C@H](C)NC1=O
B18: Cyclo[Leu-His-Asn-Leu-NH-(CH2)6-CO-Thr-Glu-Arg-Met-Dpr] (peptide)
peptide: cyclo(LHNL[Ahp]TERM[Dap])
SMILES: CSCC[C@@H]1NC(=O)[C@H](CCCNC(=N)N)NC(=O)[C@H](CCC(=O)O)NC(=O)[C@H]([C@@H](C)O)NC(=O)CCCCCCNC(=O)[C@H](CC(C)C)NC(=O)[C@H](CC(N)=O)NC(=O)[C@H](Cc2c[nH]cn2)NC(=O)[C@H](CC(C)C)NC(=O)[C@H](CN)NC1=O
B19: Cyclo[Npg-His-Asn-Leu-NH-(CH2)6-CO-Thr-Glu-Arg-Met-Ala] (peptide)
peptide: cyclo([tBuAla]HNL[Ahp]TERMA)

These binders were tested against T1, blood platelet receptor glycoprotein Ib-IX-V complex (GPIb) (human, UniProt P07359 17-652; P13224 26-206; P14770 17-177; P40197 17-560) (assay: inhibition of static adhesion of human platelets to coated vWF-A1; grade B = IC50 between 1 µM and 10 µM).
T1 construct: whole, on cells; also called GPIb complex; GPIb receptor
Description: (§1) Platelet rich plasma was carefully transferred again to fresh containers, PGE1 (0.5 μg/ml, Sigma) was added and the suspension was allowed to rest for 5 min. This was followed by another centrifugation step for 15 min at 360 g. The supernatant was discarded and the cell pellets were carefully resuspended in tyrode buffer (NaCl, 137 mM (Sigma S-3014); KCl, 2.7 mM (Sigma P-9541); NaHCO₃,12 mM (Riedel deHaen 31437); NaH₂PO₄×2H₂O, 0.36 mM (Merck 6345); MgCl₂×6 H₂O, 1 mM (Sigma M-2670); Hepes, 10 mM (Sigma H-1016); glucose, 5.6 mM (Merck 8342); BSA, 0.1% (Sigma A7906)), and PGE1 (0.25 μg/ml) was added. After 5 min of resting the suspension was spun down for 15 min at 300 g. The supernatant was discarded and the pellets were carefully resuspended in TBS buffer (Tris-HCl, 50 mM (Fluka 93371); NaCl, 120 mM (Sigma S-3014); KCl, 2.7 mM (Sigma P-9541); CaCl₂, 0.05 mM (Sigma C-3306); MgCl₂×6 H₂O, 2 mM (Sigma M-2670); BSA, 0.1% (Sigma A7906); pH 7.4). The platelet count was adjusted to 2×10⁵ cells/μl, and the suspensions from individual donors were pooled at this stage. The platelets were allowed to rest for 30 min at room temperature before calcein AM (2.5 μM per 2×10⁵ cells/pi (Molecular Probes C-3099)) was added. This was followed by 15 min incubation in the dark. Cells were diluted to 5×10⁴ cells/μl and ReoPro (3 μg/ml (Centocor B. V., Leiden, N L)) was added, followed by a 10 min incubation period in the dark before adding the platelets to the assay plates.
(§2) 96 well plates (Greiner hb, black, clear bottom, F, 655097) were coated with human recombinant vWF-A1 domain (1.5 μg/well, AA 475-706, expressed in E. coli) in Tris buffer (pH 7.4; Tris-HCl, 25 mM; NaCl, 150 mM) and incubated for 1 h at room temperature. After washing the wells 3× with TBS, blocking buffer (TBS with 5% BSA) was added followed by an incubation for 1 h. The wells were washed again 3× with TBS before 200 μl TBS were added to each well, preventing them from drying out. TBS was flicked out and serial dilutions of the test compound were added. The washed and calcein AM labeled thrombocytes were added to the wells (2.5×10⁶ cells/well). Following an adhesion period of 1.5 h in the dark the wells were washed 3× with TBS. Measurement of fluorescence per well was performed in a SpectraMax M5 reader (Molecular Devices). From the raw data % inhibition and IC₅₀ values were calculated.

T1 sequence (P07359 17-652, chain 1 of 4): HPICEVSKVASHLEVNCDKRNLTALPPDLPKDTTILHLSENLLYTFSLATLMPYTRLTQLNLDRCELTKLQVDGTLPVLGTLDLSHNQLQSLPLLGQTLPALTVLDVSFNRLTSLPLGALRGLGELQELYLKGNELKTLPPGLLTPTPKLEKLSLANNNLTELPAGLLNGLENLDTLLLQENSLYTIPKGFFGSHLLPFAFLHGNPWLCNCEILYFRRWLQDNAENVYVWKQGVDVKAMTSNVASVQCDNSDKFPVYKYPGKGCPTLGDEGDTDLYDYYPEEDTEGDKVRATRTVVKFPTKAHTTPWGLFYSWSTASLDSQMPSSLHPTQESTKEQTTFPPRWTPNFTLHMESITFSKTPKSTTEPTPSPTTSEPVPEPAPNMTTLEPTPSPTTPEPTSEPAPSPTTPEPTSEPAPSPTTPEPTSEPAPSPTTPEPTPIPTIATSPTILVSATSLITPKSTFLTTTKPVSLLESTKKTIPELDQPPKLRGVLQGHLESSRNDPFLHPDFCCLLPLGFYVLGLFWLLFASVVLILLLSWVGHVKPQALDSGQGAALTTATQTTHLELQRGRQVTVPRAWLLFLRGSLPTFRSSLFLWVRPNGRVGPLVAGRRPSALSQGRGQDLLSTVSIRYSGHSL
T1 sequence (P13224 26-206, chain 2 of 4): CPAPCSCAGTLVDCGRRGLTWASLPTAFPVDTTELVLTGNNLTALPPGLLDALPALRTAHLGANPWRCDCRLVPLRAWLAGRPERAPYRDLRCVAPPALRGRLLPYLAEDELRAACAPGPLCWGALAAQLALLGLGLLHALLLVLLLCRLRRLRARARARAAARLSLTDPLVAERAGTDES
T1 sequence (P14770 17-177, chain 3 of 4): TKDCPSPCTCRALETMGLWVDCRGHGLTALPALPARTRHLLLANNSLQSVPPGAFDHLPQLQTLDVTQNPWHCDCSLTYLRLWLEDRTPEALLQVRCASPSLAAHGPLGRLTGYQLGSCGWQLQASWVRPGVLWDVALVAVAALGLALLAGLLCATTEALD
T1 sequence (P40197 17-560, chain 4 of 4): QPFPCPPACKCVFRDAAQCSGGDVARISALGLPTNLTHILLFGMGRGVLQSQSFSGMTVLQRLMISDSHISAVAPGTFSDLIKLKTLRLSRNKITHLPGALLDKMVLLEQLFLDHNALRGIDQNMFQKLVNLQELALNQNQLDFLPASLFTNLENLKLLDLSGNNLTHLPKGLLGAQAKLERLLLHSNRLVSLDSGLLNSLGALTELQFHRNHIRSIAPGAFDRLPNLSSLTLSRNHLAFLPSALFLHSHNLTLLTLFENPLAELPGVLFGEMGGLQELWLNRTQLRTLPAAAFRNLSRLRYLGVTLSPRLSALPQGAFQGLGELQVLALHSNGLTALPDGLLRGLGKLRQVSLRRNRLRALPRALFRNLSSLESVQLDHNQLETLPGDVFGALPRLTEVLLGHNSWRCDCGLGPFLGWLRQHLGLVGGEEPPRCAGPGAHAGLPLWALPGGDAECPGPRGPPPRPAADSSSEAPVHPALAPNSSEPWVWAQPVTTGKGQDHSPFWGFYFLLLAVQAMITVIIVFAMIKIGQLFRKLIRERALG

Binder | IC50
B1 | 1 to 10 µM
B2 | 1 to 10 µM
B3 | 1 to 10 µM
B4 | 1 to 10 µM
B5 | 1 to 10 µM
B6 | 1 to 10 µM
B7 | 1 to 10 µM

The binders below were run against T1, blood platelet receptor glycoprotein … (assay: inhibition of static adhesion of human platelets to coated vWF-A1; grade C = IC50 lower than 1 µM).
Description: as §1, §2

Binder | IC50
B8 | < 1 µM
B9 | < 1 µM
B10 | < 1 µM
B11 | < 1 µM
B12 | < 1 µM
B13 | < 1 µM
B14 | < 1 µM
B15 | < 1 µM
B16 | < 1 µM
B17 | < 1 µM
B18 | < 1 µM
B19 | < 1 µM
